{"source": "the supplement of paper PMC5998384", "key": {"HeLa Kyoto [1]": {"test_system": "HeLa Kyoto", "test": "melting temperature (median over replicates), in situ; higher = more thermally stable"}, "HeLa Kyoto [2]": {"test_system": "HeLa Kyoto", "test": "solubility in G1/S (NP-40 vs SDS abundance) (log2 ratio); higher = more soluble", "conditions": "cell cycle stage: G1/S"}, "HeLa Kyoto [3]": {"test_system": "HeLa Kyoto", "test": "thermal stability score vs G1/S (z-score of summed log2 fold changes over temperatures); higher = more thermally stable than in G1/S"}, "HeLa Kyoto [4]": {"test_system": "HeLa Kyoto", "test": "solubility change mitosis vs G1/S (difference of NP-40 vs SDS log2 ratios) (log2 ratio difference); higher = more soluble in mitosis"}, "[5]": {"conditions": "cell cycle stage: early G1 (4.5 h after nocodazole release)"}}}
{"sequence": "MSEQSICQARAAVMVYDDANKKWVPAGGSTGFSRVHIYHHTGNNTFRVVGRKIQDHQVVINCAIPKGLKYNQATQTFHQWRDARQVYGLNFGSKEDANVFASAMMHALEVLNSQETGPTLPRQNSQLPAQVQNGPSQEELEIQRRQLQEQQRQKELERERLERERMERERLERERLERERLERERLEQEQLERERQERERQERLERQERLERQERLERQERLDRERQERQERERLERLERERQERERQEQLEREQLEWERERRISSAAAPASVETPLNSVLGDSSASEPGLQAASQPAETPSQQGIVLGPLAPPPPPPLPPGPAQASVALPPPPGPPPPPPLPSTGPPPPPPPPPLPNQVPPPPPPPPAPPLPASGFFLASMSEDNRPLTGLAAAIAGAKLRKVSRMEDTSFPSGGNAIGVNSASSKTDTGRGNGPLPLGGSGLMEEMSALLARRRRIAEKGSTIETEQKEDKGEDSEPVTSKASSTSTPEPTRKPWERTNTMNGSKSPVISRRDSPRKNQIVFDNRSYDSLHRPKSTPLSQPSANGVQTEGLDYDRLKQDILDEMRKELTKLKEELIDAIRQELSKSNTA [ENAH]", "values": [{"measurement": "melting temperature", "setting": "HeLa Kyoto [1]; cell cycle stage: G1/S", "value": 51.7, "unit": "°C"}, {"measurement": "melting temperature", "setting": "HeLa Kyoto [1]; cell cycle stage: mitosis", "value": 51.9, "unit": "°C"}, {"measurement": "solubility in G1/S (log2)", "setting": "HeLa Kyoto [2]", "value": 0.13}, {"measurement": "thermal stability score", "setting": "HeLa Kyoto [3]; [5]", "value": 2.28}, {"measurement": "thermal stability score", "setting": "HeLa Kyoto [3]; cell cycle stage: mitosis", "value": 8.8}, {"measurement": "solubility change mitosis (log2)", "setting": "HeLa Kyoto [4]", "value": 0.0923}]}
{"sequence": "MSEREERRFVEIPRESVRLMAESTGLELSDEVAALLAEDVCYRLREATQNSSQFMKHTKRRKLTVEDFNRALRWSSVEAVCGYGSQEALPMRPAREGELYFPEDREVNLVELALATNIPKGCAETAVRVHVSYLDGKGNLAPQGSVPSAVSSLTDDLLKYYHQVTRAVLGDDPQLMKVALQDLQTNSKIGALLPYFVYVVSGVKSVSHDLEQLHRLLQVARSLFRNPHLCLGPYVRCLVGSVLYCVLEPLAASINPLNDHWTLRDGAALLLSHIFWTHGDLVSGLYQHILLSLQKILADPVRPLCCHYGAVVGLHALGWKAVERVLYPHLSTYWTNLQAVLDDYSVSNAQVKADGHKVYGAILVAVERLLKMKAQAAEPNRGGPGGRGCRRLDDLPWDSLLFQESSSGGGAEPSFGSGLPLPPGGAGPEDPSLSVTLADIYRELYAFFGDSLATRFGTGQPAPTAPRPPGDKKEPAAAPDSVRKMPQLTASAIVSPHGDESPRGSGGGGPASASGPAASESRPLPRVHRARGAPRQQGPGTGTRDVFQKSRFAPRGAPHFRFIIAGRQAGRRCRGRLFQTAFPAPYGPSPASRYVQKLPMIGRTSRPARRWALSDYSLYLPL [TAF6L]", "values": [{"measurement": "melting temperature", "setting": "HeLa Kyoto [1]; cell cycle stage: G1/S", "value": 49.3, "unit": "°C"}, {"measurement": "melting temperature", "setting": "HeLa Kyoto [1]; cell cycle stage: mitosis", "value": 49.5, "unit": "°C"}, {"measurement": "solubility in G1/S (log2)", "setting": "HeLa Kyoto [2]", "value": 0.0555}, {"measurement": "thermal stability score", "setting": "HeLa Kyoto [3]; [5]", "value": 0.603}, {"measurement": "thermal stability score", "setting": "HeLa Kyoto [3]; cell cycle stage: mitosis", "value": 1.02}, {"measurement": "solubility change mitosis (log2)", "setting": "HeLa Kyoto [4]", "value": -0.115}]}
{"sequence": "MSESFDCAKCNESLYGRKYIQTDSGPYCVPCYDNTFANTCAECQQLIGHDSRELFYEDRHFHEGCFRCCRCQRSLADEPFTCQDSELLCNDCYCSAFSSQCSACGETVMPGSRKLEYGGQTWHEHCFLCSGCEQPLGSRSFVPDKGAHYCVPCYENKFAPRCARCSKTLTQGGVTYRDQPWHRECLVCTGCQTPLAGQQFTSRDEDPYCVACFGELFAPKCSSCKRPIVGLGGGKYVSFEDRHWHHNCFSCARCSTSLVGQGFVPDGDQVLCQGCSQAGP [FHL3]", "values": [{"measurement": "melting temperature", "setting": "HeLa Kyoto [1]; cell cycle stage: G1/S", "value": 57.7, "unit": "°C"}, {"measurement": "melting temperature", "setting": "HeLa Kyoto [1]; cell cycle stage: mitosis", "value": 56.8, "unit": "°C"}, {"measurement": "solubility in G1/S (log2)", "setting": "HeLa Kyoto [2]", "value": -0.281}, {"measurement": "thermal stability score", "setting": "HeLa Kyoto [3]; [5]", "value": 0.504}, {"measurement": "thermal stability score", "setting": "HeLa Kyoto [3]; cell cycle stage: mitosis", "value": -1.78}, {"measurement": "solubility change mitosis (log2)", "setting": "HeLa Kyoto [4]", "value": -0.184}]}
{"sequence": "MSFDPNLLHNNGHNGYPNGTSAALRETGVIEKLLTSYGFIQCSERQARLFFHCSQYNGNLQDLKVGDDVEFEVSSDRRTGKPIAVKLVKIKQEILPEERMNGQVVCAVPHNLESKSPAAPGQSPTGSVCYERNGEVFYLTYTPEDVEGNVQLETGDKINFVIDNNKHTGAVSARNIMLLKKKQARCQGVVCAMKEAFGFIERGDVVKEIFFHYSEFKGDLETLQPGDDVEFTIKDRNGKEVATDVRLLPQGTVIFEDISIEHFEGTVTKVIPKVPSKNQNDPLPGRIKVDFVIPKELPFGDKDTKSKVTLLEGDHVRFNISTDRRDKLERATNIEVLSNTFQFTNEAREMGVIAAMRDGFGFIKCVDRDVRMFFHFSEILDGNQLHIADEVEFTVVPDMLSAQRNHAIRIKKLPKGTVSFHSHSDHRFLGTVEKEATFSNPKTTSPNKGKEKEAEDGIIAYDDCGVKLTIAFQAKDVEGSTSPQIGDKVEFSISDKQRPGQQVATCVRLLGRNSNSKRLLGYVATLKDNFGFIETANHDKEIFFHYSEFSGDVDSLELGDMVEYSLSKGKGNKVSAEKVNKTHSVNGITEEADPTIYSGKVIRPLRSVDPTQTEYQGMIEIVEEGDMKGEVYPFGIVGMANKGDCLQKGESVKFQLCVLGQNAQTMAYNITPLRRATVECVKDQFGFINYEVGDSKKLFFHVKEVQDGIELQAGDEVEFSVILNQRTGKCSACNVWRVCEGPKAVAAPRPDRLVNRLKNITLDDASAPRLMVLRQPRGPDNSMGFGAERKIRQAGVID [CSDE1]", "values": [{"measurement": "melting temperature", "setting": "HeLa Kyoto [1]; cell cycle stage: G1/S", "value": 47.6, "unit": "°C"}, {"measurement": "melting temperature", "setting": "HeLa Kyoto [1]; cell cycle stage: mitosis", "value": 48.4, "unit": "°C"}, {"measurement": "solubility in G1/S (log2)", "setting": "HeLa Kyoto [2]", "value": -0.15}, {"measurement": "thermal stability score", "setting": "HeLa Kyoto [3]; [5]", "value": 1.75}, {"measurement": "thermal stability score", "setting": "HeLa Kyoto [3]; cell cycle stage: mitosis", "value": 4.08}, {"measurement": "solubility change mitosis (log2)", "setting": "HeLa Kyoto [4]", "value": -0.111}]}
